According to paper PMC4013287 (Arteriosclerosis, thrombosis, and vascular biology, 2013):

Experiments:
von Willebrand factor = von Willebrand factor (UniProt P04275 764-2813); experiment: ELISA
type 1 collagen = type 1 collagen (UniProt P02452); experiment: ELISA
Chain of type 1 collagen (P02452 23-1218, chain 1 of 2): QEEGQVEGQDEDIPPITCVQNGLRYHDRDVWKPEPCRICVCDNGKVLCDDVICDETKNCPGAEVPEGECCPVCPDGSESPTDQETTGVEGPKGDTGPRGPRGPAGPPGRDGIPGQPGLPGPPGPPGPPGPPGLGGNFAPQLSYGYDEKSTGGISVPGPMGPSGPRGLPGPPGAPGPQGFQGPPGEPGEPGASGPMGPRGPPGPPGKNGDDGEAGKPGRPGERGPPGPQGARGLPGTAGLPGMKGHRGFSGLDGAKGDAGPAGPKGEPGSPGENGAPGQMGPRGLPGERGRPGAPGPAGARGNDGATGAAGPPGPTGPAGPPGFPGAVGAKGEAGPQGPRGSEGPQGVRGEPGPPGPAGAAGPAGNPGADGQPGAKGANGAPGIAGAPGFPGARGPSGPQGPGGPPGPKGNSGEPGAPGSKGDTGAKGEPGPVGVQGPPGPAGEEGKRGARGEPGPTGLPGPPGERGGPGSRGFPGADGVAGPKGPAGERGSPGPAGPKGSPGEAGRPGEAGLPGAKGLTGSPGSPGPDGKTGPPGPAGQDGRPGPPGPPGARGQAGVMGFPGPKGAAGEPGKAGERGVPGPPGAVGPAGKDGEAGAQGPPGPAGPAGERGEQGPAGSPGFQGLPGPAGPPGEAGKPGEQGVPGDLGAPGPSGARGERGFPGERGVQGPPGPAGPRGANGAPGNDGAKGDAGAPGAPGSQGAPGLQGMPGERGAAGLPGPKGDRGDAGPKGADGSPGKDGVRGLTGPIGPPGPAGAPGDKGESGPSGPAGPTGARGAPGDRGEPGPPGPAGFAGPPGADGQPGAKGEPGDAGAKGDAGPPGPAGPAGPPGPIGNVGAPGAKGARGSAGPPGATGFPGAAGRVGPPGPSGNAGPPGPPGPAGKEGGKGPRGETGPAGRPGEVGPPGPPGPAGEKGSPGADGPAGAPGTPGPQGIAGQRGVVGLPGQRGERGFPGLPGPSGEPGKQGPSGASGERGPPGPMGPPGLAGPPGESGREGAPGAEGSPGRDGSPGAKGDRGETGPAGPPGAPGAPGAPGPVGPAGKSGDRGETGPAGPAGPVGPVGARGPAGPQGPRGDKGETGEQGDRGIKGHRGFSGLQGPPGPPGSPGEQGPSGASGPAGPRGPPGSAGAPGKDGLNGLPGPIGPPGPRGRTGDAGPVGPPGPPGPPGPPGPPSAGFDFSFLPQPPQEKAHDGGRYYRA
Chain of type 1 collagen (P08123 80-1119, chain 2 of 2, further chain): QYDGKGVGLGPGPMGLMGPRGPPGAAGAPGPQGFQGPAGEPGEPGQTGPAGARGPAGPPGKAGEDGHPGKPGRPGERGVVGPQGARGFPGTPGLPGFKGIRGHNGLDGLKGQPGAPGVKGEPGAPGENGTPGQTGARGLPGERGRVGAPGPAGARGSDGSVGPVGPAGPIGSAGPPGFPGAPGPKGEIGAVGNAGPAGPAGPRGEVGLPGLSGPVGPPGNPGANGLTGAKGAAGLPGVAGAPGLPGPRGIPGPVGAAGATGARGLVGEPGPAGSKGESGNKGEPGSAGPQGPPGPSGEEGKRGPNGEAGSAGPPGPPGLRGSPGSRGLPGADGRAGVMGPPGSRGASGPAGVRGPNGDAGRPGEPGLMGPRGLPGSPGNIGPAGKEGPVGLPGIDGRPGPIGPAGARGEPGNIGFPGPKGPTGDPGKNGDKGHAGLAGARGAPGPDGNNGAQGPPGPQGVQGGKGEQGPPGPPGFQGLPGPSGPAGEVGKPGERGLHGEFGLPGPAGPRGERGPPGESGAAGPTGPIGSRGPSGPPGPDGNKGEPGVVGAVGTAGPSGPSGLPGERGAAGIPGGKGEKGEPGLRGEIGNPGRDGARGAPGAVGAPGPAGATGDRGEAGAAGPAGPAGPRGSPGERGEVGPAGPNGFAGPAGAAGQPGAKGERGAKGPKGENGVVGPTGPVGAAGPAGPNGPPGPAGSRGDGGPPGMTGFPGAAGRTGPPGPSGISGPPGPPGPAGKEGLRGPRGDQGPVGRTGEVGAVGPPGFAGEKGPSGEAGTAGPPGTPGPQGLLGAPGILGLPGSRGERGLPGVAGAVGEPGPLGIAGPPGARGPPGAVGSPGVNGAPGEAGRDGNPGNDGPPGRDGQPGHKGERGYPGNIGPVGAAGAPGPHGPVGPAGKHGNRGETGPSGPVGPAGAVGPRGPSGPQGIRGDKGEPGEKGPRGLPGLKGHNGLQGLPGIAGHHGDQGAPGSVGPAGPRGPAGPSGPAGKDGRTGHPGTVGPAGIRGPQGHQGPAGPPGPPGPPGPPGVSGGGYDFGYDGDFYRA

Kd (von Willebrand factor): 8.2 ± 1.6 nM
Kd (type 1 collagen): 257 nM
B1: Recombinant human full-length ADAMTS13 (enzyme, UniProt Q76LX8 75-1427, looked up)
chain: AAGGILHLELLVAVGPDVFQAHQEDTERYVLTNLNIGAELLRDPSLGAQFRVHLVKMVILTEPEGAPNITANLTSSLLSVCGWSQTINPEDDTDPGHADLVLYITRFDLELPDGNRQVRGVTQLGGACSPTWSCLITEDTGFDLGVTIAHEIGHSFGLEHDGAPGSGCGPSGHVMASDGAAPRAGLAWSPCSRRQLLSLLSAGRARCVWDPPRPQPGSAGHPPDAQPGLYYSANEQCRVAFGPKAVACTFAREHLDMCQALSCHTDPLDQSSCSRLLVPLLDGTECGVEKWCSKGRCRSLVELTPIAAVHGRWSSWGPRSPCSRSCGGGVVTRRRQCNNPRPAFGGRACVGADLQAEMCNTQACEKTQLEFMSQQCARTDGQPLRSSPGGASFYHWGAAVPHSQGDALCRHMCRAIGESFIMKRGDSFLDGTRCMPSGPREDGTLSLCVSGSCRTFGCDGRMDSQQVWDRCQVCGGDNSTCSPRKGSFTAGRAREYVTFLTVTPNLTSVYIANHRPLFTHLAVRIGGRYVVAGKMSISPNTTYPSLLEDGRVEYRVALTEDRLPRLEEIRIWGPLQEDADIQVYRRYGEEYGNLTRPDITFTYFQPKPRQAWVWAAVRGPCSVSCGAGLRWVNYSCLDQARKELVETVQCQGSQQPPAWPEACVLEPCPPYWAVGDFGPCSASCGGGLRERPVRCVEAQGSLLKTLPPARCRAGAQQPAVALETCNPQPCPARWEVSEPSSCTSAGGAGLALENETCVPGADGLEAPVTEGPGSVDEKLPAPEPCVGMSCPPGWGHLDATSAGEKAPSPWGSIRTGAQAAHVWTPAAGSCSVSCGRGLMELRFLCMDSALRVPVQEELCGLASKPGSRREVCQAVPCPARWQYKLAACSVSCGRGVVRRILYCARAHGEDDGEEILLDTQCQGLPRPEPQEACSLEPCPPRWKVMSLGPCSASCGLGTARRSVACVQLDQGQDVEVDEAACAALVRPEASVPCLIADCTYRWHVGTWMECSVSCGDGIQRRRDTCLGPQAQAPVPADFCQHLPKPVTVRGCWAGPCVGQGTPSLVPHEEAAAPGRTTATPAGASLEWSQARGLLFSPAPQPRRLLPGPQENSVQSSACGRQHLEPTGTIDMRGPGQADCAVAIGRPLGEVVTLRVLESSLNCSAGDMLLLWGRLTWRKMCRKLLDMTFSSKTNTLVVRQRCGRPGGGVLLRYGSQLAPETFYRECDMQLFGPWGEIVSPSLSPATSNAGGCRLFINVAPHARIAIHALATNMGAGTEGANASYILIRDTHSLRTTAFHGQQVLYWESESSQAEMEFSEGFLKAQASLRGQYWTLQSWVPEMQDPQSWKGKEGT
